Laboratory results as given in PMC3377380.

Target: GST-Obsc_(6316–6345) (Rattus norvegicus)
Experiment: SPR

## sAnk1-I102F (MBP fusion) (domain or fragment)
  fold slower dissociation than wild type: 3 times
